Source: patent US20100184636A1 (POSTECH ACADEMY INDUSTRY FOUNDATION, published 2010)

What was measured:
myc-mTOR^wt = myc-mTOR^wt (human, UniProt P42345 1-2549); assay: co-IP of myc-mTOR^wt with PLD2 fragments (FIG. 5)
Experimental: (§1) After harvesting COS7 cells, total extracts were prepared by brief sonication in ice-cold lysis buffer (40 mM HEPES pH7.5, 120 mM NaCl, 1 mM EDTA, 10 mM pyrophosphate, 10 mM glycerophosphate, 50 mM NaF, 1.5 mM Na₃VO₄, 0.5% CHAPS, 1 mM PMSF, protease inhibitor cocktails). Clarified extracts were mixed with 2 μg of the respective antibodies. Then protein A-Sepharose beads were added to isolate the antibody complex. After four washings with lysis buffer, the final immunoprecipitates were washed once with wash buffer (50 mM HEPES pH7.5, 150 mM NaCl), and then subjected to SDS-PAGE using Hyperfilm (Amersham Pharmacia Biotech), nitrocellulose membranes (Watmann), Power supply (Amersham Pharmacia Biotech), Electrophoretic Transfer unit (Hoefer Scientific Instruments), and ECL™ (Amersham Pharmacia Biotech).

[1] = molecular target: T1, phospholipase D2, wild type (PLD2^wt) (Homo sapiens, UniProt O14939 1-933); assay: co-IP with anti-HA antibody of HA-raptor constructs with PLD2^wt (FIG. 11)
T1 construct: also called recombinant PLD2; hPLD2
Experimental: as §1

Binder	binding result (myc-mTOR^wt)	binding result [1]
PLD2^ΔN308 (enzyme, N-terminal 308 residues deleted, by analogy with ΔN184; also called ΔN308 PLD2) LAQGPGRDFLQLHRHDSYAPPRPGTLARWFVNGAGYFAAVADAILRAQEEIFITDWWLSPEVYLKRPAHSDDWRLDIMLKRKAEEGVRVSILLFKEVELALGINSGYSKRALMLLHPNIKVMRHPDQVTLWAHHEKLLVVDQVVAFLGGLDLAYGRWDDLHYRLTDLGDSSESAASQPPTPRPDSPATPDLSHNQFFWLGKDYSNLITKDWVQLDRPFEDFIDRETTPRMPWRDVGVVVHGLPARDLARHFIQRWNFTKTTKAKYKTPIYPYLLPKSTSTANQLPFTLPGGQCTTVQVLRSVDRWSAGTLENSILNAYLHTIRESQHFLYIENQFFISCSDGRTVLNKVGDEIVDRILKAHKQGWCYRVYVLLPLLPGFEGDISTGGGNSIQAILHFTYRTLCRGEYSILHRLKAAMGTAWRDYISICGLRTHGELGGHPVSELIYIHSKVLIADDRTVIIGSANINDRSLLGKRDSELAVLIEDTETEPSLMNGAEYQAGRFALSLRKHCFGVILGANTRPDLDLRDPICDDFFQLWQDMAESNANIYEQIFRCLPSNATRSLRTLREYVAVEPLATVSPPLARSELTQVQGHLVHFPLKFLEDESLLPPLGSKEGMIPLEVWT	no binding	
HA-raptor^1020-1335 (other, also called WD40 repeat region of raptor; not shown: HA tag) NRNPGVPSVVKFHPFTPCIAVADKDSICFWDWEKGEKLDYFHNGNPRYTRVTAMEYLNGQDCSLLLTATDDGAIRVWKNFADLEKNPEMVTAWQGLSDMLPTTRGAGMVVDWEQETGLLMSSGDVRIVRIWDTDREMKVQDIPTGADSCVTSLSCDSHRSLIVAGLGDGSIRVYDRRMALSECRVMTYREHTAWVVKASLQKRPDGHIVSVSVNGDVRIFDPRMPESVNVLQIVKGLTALDIHPQADLIACGSVNQFTAIYNSSGELINNIKYYDGFMGQRVGAISCLAFHPHWPHLAVGSNDYYISVYSVEKRVR		binds
